Source: PMC6406459, “Hyperoxidation of Peroxiredoxin 6 Induces Alteration from Dimeric to Oligomeric State” (Antioxidants, 2019)

B1: reduced rat peroxiredoxin 6 (Cys47-SH) (enzyme, UniProt O35244 1-224, looked up)
chain: MPGGLLLGDEAPNFEANTTIGHIRFHDFLGDSWGILFSHPRDFTPVCTTELGRAAKLAPEFAKRNVKLIALSIDSVEDHFAWSKDINAYNGAAPTEKLPFPIIDDKDRDLAILLGMLDPAEKDEKGMPVTARVVFIFGPDKKLKLSILYPATTGRNFDEILRVVDSLQLTASNPVATPVDWKKGESVMVLPTLPEEEAKQLFPKGVFTKELPSGKKYLRYTPQP
notes: Peroxiredoxin 6, rat, UniProtKB O35244, 224 amino acids as in the cDNA, without any vector derived residues; Kept reduced by 1 mM DTT in 50 mM Tris-HCl, 100 mM NaCl pH 7.4; also called reduced Prdx6; rPrdx6; source: reduced with 1 mM DTT; not shown: intein tag, C-terminal, cleaved
B2: hyperoxidized rat peroxiredoxin 6 (C47 sulfinic acid or sulfonic acid) (enzyme, UniProt O35244 1-224, looked up)
chain: MPGGLLLGDEAPNFEANTTIGHIRFHDFLGDSWGILFSHPRDFTPVCTTELGRAAKLAPEFAKRNVKLIALSIDSVEDHFAWSKDINAYNGAAPTEKLPFPIIDDKDRDLAILLGMLDPAEKDEKGMPVTARVVFIFGPDKKLKLSILYPATTGRNFDEILRVVDSLQLTASNPVATPVDWKKGESVMVLPTLPEEEAKQLFPKGVFTKELPSGKKYLRYTPQP
modifications: C47 sulfinic acid or sulfonic acid (Cys47-SO2H or Cys47-SO3H)
notes: Peroxiredoxin 6, rat, UniProtKB O35244, 224 amino acids as in the cDNA, without any vector derived residues; Cys47 hyperoxidized by H2O2; Same purified protein as m1, treated with 500 uM H2O2 in 50 mM Tris-HCl, 100 mM NaCl pH 7.4; also called hyperoxidized Prdx6; oxidized Prdx6; source: incubated with 500 uM H2O2 at room temperature for 30 min to 1 h; not shown: intein tag, C-terminal, cleaved

Biological target: the molecule itself
Assay: native gel or EMSA; native PAGE, continuous 7.5% polyacrylamide gel, non-reducing and non-denaturing; samples in 50 mM Tris-HCl, 100 mM NaCl pH 7.4; running buffer 30 mM beta-alanine, 20 mM lactic acid pH 3.8, 180 V, 2 h, reverse polarity; markers bovine albumin and horse ferritin

Row | Protein | stoichiometry N | binding result
1 | B1 | 2 | –
2 | B2 | – | binds
